Kd, koff and kon data for three molecules are collected here from paper PMC12319226 (Frontiers in Bioinformatics, 2025).

Common to all, as to assay: BLI
What all share (conditions): both partners purified

Assay [1] addresses T1, fHbp mutant 0012 (Neisseria meningitidis, fHbp v1.1 mutant, point mutant).
T1 chain: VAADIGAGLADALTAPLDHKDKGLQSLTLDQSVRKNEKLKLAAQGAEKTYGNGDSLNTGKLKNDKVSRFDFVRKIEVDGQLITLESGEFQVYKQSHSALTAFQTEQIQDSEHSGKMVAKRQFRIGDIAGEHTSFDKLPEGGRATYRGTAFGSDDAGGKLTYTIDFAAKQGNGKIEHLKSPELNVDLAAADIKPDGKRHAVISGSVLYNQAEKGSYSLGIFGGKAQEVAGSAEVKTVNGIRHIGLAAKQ

In assay [2] the target is T2, fHbp mutant 0022 (Neisseria meningitidis, fHbp v3.28 …, point mutant).
T2 chain: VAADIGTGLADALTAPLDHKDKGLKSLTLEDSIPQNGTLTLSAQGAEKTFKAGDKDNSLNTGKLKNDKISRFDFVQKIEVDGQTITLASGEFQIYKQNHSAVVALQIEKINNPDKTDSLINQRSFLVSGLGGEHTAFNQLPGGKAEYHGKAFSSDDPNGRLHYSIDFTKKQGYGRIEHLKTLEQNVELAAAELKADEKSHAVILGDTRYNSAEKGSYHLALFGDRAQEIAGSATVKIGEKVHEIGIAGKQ

For assay [3], the target named is T3, fHbp m001690 (Neisseria meningitidis, engineered fHbp …, point mutant).
T3 chain: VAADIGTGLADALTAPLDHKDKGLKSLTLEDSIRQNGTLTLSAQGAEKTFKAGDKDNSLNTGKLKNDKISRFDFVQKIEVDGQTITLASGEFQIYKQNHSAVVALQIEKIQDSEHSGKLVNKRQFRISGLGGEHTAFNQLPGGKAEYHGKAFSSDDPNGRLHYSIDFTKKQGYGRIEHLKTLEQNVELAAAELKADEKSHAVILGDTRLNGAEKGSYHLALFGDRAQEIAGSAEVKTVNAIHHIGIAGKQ

Assay [4] has as its target T4, fHbp m002404 (Neisseria meningitidis fHbp v3.28, …, chimera).
T4 chain: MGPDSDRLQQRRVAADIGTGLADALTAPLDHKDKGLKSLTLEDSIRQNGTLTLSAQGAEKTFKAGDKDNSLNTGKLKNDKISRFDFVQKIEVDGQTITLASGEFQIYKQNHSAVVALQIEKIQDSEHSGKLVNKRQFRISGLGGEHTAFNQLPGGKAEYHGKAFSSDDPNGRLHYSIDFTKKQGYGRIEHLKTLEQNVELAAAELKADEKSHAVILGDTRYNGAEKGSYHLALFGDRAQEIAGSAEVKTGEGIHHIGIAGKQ

For assay [5], the target named is T5, fHbp m002419 (Neisseria meningitidis fHbp v3.28, …, chimera).
T5 chain: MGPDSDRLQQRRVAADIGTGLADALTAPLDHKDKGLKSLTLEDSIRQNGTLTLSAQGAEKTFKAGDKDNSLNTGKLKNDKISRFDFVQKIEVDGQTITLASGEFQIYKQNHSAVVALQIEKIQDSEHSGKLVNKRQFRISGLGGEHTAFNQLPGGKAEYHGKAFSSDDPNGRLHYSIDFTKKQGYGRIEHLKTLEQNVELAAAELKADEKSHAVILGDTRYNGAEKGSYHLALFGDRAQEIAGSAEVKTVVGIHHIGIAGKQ

Assay [6] concerns the target T6, fHbp m001037 (Neisseria meningitidis fHbp v3.28, …, point mutant).
T6 chain: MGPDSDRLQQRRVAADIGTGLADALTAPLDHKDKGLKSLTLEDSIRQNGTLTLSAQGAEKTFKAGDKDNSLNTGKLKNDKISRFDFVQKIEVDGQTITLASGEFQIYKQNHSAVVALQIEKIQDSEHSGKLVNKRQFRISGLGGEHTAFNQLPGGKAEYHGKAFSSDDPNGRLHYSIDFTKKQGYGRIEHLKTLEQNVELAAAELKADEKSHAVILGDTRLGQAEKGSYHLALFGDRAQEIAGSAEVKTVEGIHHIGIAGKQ

Assay [7] deals with T7, fHbp m001152 (Neisseria meningitidis fHbp v3.28-based …, point mutant).
T7 chain: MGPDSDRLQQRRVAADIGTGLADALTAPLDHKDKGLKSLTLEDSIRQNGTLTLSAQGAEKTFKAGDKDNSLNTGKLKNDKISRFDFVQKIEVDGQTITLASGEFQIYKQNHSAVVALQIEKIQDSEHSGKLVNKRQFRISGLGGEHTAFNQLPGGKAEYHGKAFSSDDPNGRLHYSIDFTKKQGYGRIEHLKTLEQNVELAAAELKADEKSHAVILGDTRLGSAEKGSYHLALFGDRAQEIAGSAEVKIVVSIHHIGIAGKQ

Assay [8] deals with T8, fHbp m001531 (Neisseria meningitidis, fHbp …, point mutant).
T8 chain: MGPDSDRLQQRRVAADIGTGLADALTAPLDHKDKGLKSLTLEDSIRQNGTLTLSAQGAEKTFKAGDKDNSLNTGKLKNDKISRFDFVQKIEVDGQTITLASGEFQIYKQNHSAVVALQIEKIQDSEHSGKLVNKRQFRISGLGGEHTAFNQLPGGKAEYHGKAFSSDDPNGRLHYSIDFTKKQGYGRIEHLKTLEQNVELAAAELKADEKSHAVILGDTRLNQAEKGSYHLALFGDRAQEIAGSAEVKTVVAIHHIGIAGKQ

Assay [9] addresses T9, fHbp m001621 (Neisseria meningitidis, fHbp …, point mutant).
T9 chain: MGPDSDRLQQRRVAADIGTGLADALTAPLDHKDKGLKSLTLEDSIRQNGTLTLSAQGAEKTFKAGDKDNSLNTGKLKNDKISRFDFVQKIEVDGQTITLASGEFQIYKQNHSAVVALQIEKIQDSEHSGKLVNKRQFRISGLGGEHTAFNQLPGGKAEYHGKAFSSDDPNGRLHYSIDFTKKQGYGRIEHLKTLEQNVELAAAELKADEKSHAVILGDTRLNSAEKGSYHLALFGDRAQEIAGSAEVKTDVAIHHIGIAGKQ

B1: mAb 1E6 (human) (antibody, V domains shown)
VH: EVQLVQSGAEVKKPGSSVKVSCKASGGTVIDYPITWVRQAPGQGLEWVGGFVPLFRTSNYGQKFQGRVTITADKSTSTASMELNSLTSEDTAIYYCARGDTAMGPFDYWGQGTLVTVSS
VL: SYVLTQPPSLSVAPGKTATLTCGGNNIAGKTVHWYQQRPGQAPVLVISYDSDRPSGIPERFSGSNSANTATLTISRVEAGDEADYYCQVWDRNSDHWVFGGGTKLTVL
notes: source: Expi293, purified (MabSelect SuRe, SEC); copies: 2 + 2
B1: the dissociation constant Kd in assay [1] was 3.52 nM; in assay [2], 0.601 nM; in assay [3], 0.678 nM; in assay [4] it was 0.429 nM; in assay [5], 0.191 nM; in [6], 0.349 nM. In addition, the Kd in assay [7] turned out to be 0.291 nM; in assay [8], 0.546 nM; in assay [9], 0.464 nM. Besides, the off-rate (koff) in assay [1] was found to be 0.00661 s⁻¹; in assay [2], 0.0003 s⁻¹; in assay [3], 0.000298 s⁻¹; in assay [4] it was 0.000144 s⁻¹; in [5], 5.3e-05 s⁻¹; in [6] it was 0.000144 s⁻¹. For the same molecule, the koff in [7] stood at 0.000121 s⁻¹; in assay [8], 0.0002 s⁻¹; in assay [9], 0.000174 s⁻¹. The kon in assay [1] came to 1.88e+06 ± 58600 M⁻¹ s⁻¹; in [2] it was 498300 ± 1660 M⁻¹ s⁻¹; in [3], 438900 ± 1790 M⁻¹ s⁻¹; in assay [4] it was 336700 ± 1540 M⁻¹ s⁻¹; in assay [5] it was 277200 ± 2090 M⁻¹ s⁻¹; in assay [6] it was 413700 ± 3870 M⁻¹ s⁻¹. Further, the kon was 415300 ± 2380 M⁻¹ s⁻¹ in [7], 367300 ± 1990 M⁻¹ s⁻¹ in [8] and 375400 ± 1900 M⁻¹ s⁻¹ in assay [9].

B2: mAb 4B3 (human) (antibody, V domains shown)
VH: QVQLVQSGGGLVKPGGSLRLSCAASGFPFSSYYMSWIRQAPGKGLEWVSDINNSGNVKEYADFVKGRLTISRDNVKNSMYLHMNSLRVEDTAVYYCARNRGRFDVWGQGTLVTVSA
VL: EIVMTQSPGTLSLSPGETATLSCRASQMISSPFLAWYQQRRGQAPRLLIYGASTRATDTPDRFRGSGSGTDFILTISRLEPEDFAVYYCQYYDDSPFTFGQGTKLEIK
notes: also called 4B3-2; source: Expi293, purified (MabSelect SuRe, SEC); copies: 2 + 2
As for B2, in assay [1], binding was put at a Kd of 1.39 nM, the koff amounted to 0.00126 s⁻¹ and the kon was found to be 906000 ± 2710 M⁻¹ s⁻¹. Also, in [2], the dissociation constant Kd worked out at 1.77 nM, the koff came to 0.000836 s⁻¹ and the kon is 473200 ± 1420 M⁻¹ s⁻¹.

B3: chimeric antibody h12C1 (antibody, V domains shown)
VH: QVQLQESGPELVKPGASVKISCKASGYSFSDYNMSWVKQSNGKSLEWIGIIDPKYGTINYNQKFKGKATLTVDQASSTAYMQLNSLTSEDSAVYYCVRDYYGSSYFDYWGQGTTLTVSS
VL: DIVLTQSPSSIYASLGERVTLTCKASQDIHNYLNWFQQKPGKSPKTLIYRANRLVDGVPSRFSGGGSGQDYSLTISSLEFEDIGIYYCLQYDEFPPTFGGGTRLEIK
notes: also called humanized 12C1; source: Expi293, purified (MabSelect SuRe, SEC); copies: 2 + 2
As for B3, the Kd in [3] amounted to 0.525 nM; in assay [4], 125 nM; in assay [5], 0.237 nM; in [6], 0.893 nM; in assay [7], 45.9 nM; in assay [8] it was 0.717 nM. The molecule further showed a Kd in [9] of 54 nM. In addition, the koff worked out at 0.000185 s⁻¹ in assay [3]; 0.01534 ± 0.000107 s⁻¹ in assay [4]; 3.39e-05 s⁻¹ in [5]; 0.000269 s⁻¹ in [6]; 0.00937 s⁻¹ in assay [7]; 0.00022 s⁻¹ in assay [8]. For the same molecule, the koff in assay [9] worked out at 0.0115 s⁻¹. The kon in assay [3] worked out at 351700 ± 1560 M⁻¹ s⁻¹; in [4], 123000 ± 5460 M⁻¹ s⁻¹; in assay [5], 143000 ± 1520 M⁻¹ s⁻¹; in assay [6], 300900 ± 2650 M⁻¹ s⁻¹; in assay [7], 204000 ± 3360 M⁻¹ s⁻¹; in assay [8], 307400 ± 2940 M⁻¹ s⁻¹. This molecule also yielded a kon in assay [9] of 214000 ± 5580 M⁻¹ s⁻¹.
